One block for each binder: values may come before it.
Experiments:
[1] = target: T1, pentameric C-reactive protein (human), P02741; assay: native gel or EMSA; BN-PAGE (4-16% Bis-Tris) of pCRP (40 ug/ml) pelleted with liposomes or microvesicles after 1 h at 37 °C in 25 mM Tris-HCl pH 7.4, 150 mM NaCl, 2 mM CaCl2; pCRP and mCRP controls beside it; details: remark: other sources report otherwise
T1 chain: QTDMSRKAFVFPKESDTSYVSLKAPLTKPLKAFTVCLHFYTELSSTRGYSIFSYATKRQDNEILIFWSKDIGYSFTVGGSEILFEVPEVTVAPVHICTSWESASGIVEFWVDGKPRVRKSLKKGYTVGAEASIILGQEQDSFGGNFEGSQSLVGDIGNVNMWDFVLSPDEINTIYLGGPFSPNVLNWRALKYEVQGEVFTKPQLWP

[2] = target: T2, tissue-deposited CRP (human (endogenous in burn wound, skeletal muscle and carotid plaque tissue)), P02741; assay: native gel or EMSA; SDS-PAGE with 1/20 of the usual SDS content (8-13% gels), burn wound lysates loaded in native buffer; control pCRP and mCRP beside them; Western blot with anti-CRP-8; details: remark: other sources report otherwise
T2 chain: T1 chain

stoichiometry N [1]: 5
B1: pentameric C-reactive protein, P02741 19-224 (natural protein)
chain: T1 chain

stoichiometry N [2]: 5
B2: tissue-deposited CRP, P02741 19-224 (natural protein)
chain: T1 chain
